Like-named read-outs stand apart in the source and are kept apart here.
T1: full-length human NPC1 (Niemann-Pick C1) (human, UniProt O15118 23-1278)
T1 sequence: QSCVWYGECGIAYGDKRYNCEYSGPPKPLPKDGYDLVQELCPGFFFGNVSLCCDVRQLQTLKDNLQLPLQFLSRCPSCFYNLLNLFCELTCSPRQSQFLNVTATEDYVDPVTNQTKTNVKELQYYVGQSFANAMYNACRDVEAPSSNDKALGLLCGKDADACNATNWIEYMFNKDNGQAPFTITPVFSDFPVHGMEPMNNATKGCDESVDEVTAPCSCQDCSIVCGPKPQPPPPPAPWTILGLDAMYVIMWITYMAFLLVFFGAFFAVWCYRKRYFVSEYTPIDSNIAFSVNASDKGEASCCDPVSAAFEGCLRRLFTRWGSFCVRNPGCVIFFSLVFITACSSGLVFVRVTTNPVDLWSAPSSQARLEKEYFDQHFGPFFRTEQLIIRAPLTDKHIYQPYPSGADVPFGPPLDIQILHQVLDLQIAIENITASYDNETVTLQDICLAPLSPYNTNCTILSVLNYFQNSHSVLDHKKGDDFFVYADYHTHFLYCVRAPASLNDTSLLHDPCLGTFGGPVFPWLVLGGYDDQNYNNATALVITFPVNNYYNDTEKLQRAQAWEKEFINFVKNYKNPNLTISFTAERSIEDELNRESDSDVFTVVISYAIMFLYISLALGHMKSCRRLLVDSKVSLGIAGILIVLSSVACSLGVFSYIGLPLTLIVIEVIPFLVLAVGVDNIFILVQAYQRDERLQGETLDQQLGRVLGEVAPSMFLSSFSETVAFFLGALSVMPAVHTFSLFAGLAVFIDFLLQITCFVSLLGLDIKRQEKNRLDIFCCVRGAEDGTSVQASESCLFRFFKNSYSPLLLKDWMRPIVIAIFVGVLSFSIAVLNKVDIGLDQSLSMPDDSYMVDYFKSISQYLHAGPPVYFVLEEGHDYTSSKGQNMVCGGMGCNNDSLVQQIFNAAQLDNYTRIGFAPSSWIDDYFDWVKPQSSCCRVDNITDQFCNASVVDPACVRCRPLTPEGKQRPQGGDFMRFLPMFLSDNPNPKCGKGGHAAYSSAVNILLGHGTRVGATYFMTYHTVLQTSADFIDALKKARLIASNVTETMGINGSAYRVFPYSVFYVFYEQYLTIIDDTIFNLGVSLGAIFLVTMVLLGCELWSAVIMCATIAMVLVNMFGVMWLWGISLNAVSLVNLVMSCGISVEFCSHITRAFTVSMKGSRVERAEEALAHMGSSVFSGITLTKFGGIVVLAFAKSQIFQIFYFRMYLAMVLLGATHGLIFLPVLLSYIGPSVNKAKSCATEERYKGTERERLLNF

B1: human NPC2 (natural protein)
chain: EPVQFKDCGSVDGVIKEVNVSPCPTQPCQLSKGQSYSVNVTFTSNIQSKSSKAVVHGILMGVPVPFPIPEPDGCKSGINCPIQKDKTYSYLNKLPVKSEYPSIKLVVEWQLQDDKNQSLFCWEIPVQIVSHL

Columns and labels:
Test in all cases: ITC
[1] = molecular target: T1, full-length human NPC1 (Niemann-Pick C1)
[2] = molecular target: T1, full-length human NPC1 (Niemann-Pick C1); remark: listed apart in the source
human NPC2 = molecular target: B1

Row | Binder | Kd [1] [µM] | Kd [2] [µM] | Kd (human NPC2) [µM]
1 | B1 | 217 ± 35.3 | 15.8 ± 1.2 | –
2 | human NPC1 ΔLinker (full length with internal deletion of the Pro-rich segment 249…257) (natural protein) QSCVWYGECGIAYGDKRYNCEYSGPPKPLPKDGYDLVQELCPGFFFGNVSLCCDVRQLQTLKDNLQLPLQFLSRCPSCFYNLLNLFCELTCSPRQSQFLNVTATEDYVDPVTNQTKTNVKELQYYVGQSFANAMYNACRDVEAPSSNDKALGLLCGKDADACNATNWIEYMFNKDNGQAPFTITPVFSDFPVHGMEPMNNATKGCDESVDEVTAPCSCQDCSIVCGAPWTILGLDAMYVIMWITYMAFLLVFFGAFFAVWCYRKRYFVSEYTPIDSNIAFSVNASDKGEASCCDPVSAAFEGCLRRLFTRWGSFCVRNPGCVIFFSLVFITACSSGLVFVRVTTNPVDLWSAPSSQARLEKEYFDQHFGPFFRTEQLIIRAPLTDKHIYQPYPSGADVPFGPPLDIQILHQVLDLQIAIENITASYDNETVTLQDICLAPLSPYNTNCTILSVLNYFQNSHSVLDHKKGDDFFVYADYHTHFLYCVRAPASLNDTSLLHDPCLGTFGGPVFPWLVLGGYDDQNYNNATALVITFPVNNYYNDTEKLQRAQAWEKEFINFVKNYKNPNLTISFTAERSIEDELNRESDSDVFTVVISYAIMFLYISLALGHMKSCRRLLVDSKVSLGIAGILIVLSSVACSLGVFSYIGLPLTLIVIEVIPFLVLAVGVDNIFILVQAYQRDERLQGETLDQQLGRVLGEVAPSMFLSSFSETVAFFLGALSVMPAVHTFSLFAGLAVFIDFLLQITCFVSLLGLDIKRQEKNRLDIFCCVRGAEDGTSVQASESCLFRFFKNSYSPLLLKDWMRPIVIAIFVGVLSFSIAVLNKVDIGLDQSLSMPDDSYMVDYFKSISQYLHAGPPVYFVLEEGHDYTSSKGQNMVCGGMGCNNDSLVQQIFNAAQLDNYTRIGFAPSSWIDDYFDWVKPQSSCCRVDNITDQFCNASVVDPACVRCRPLTPEGKQRPQGGDFMRFLPMFLSDNPNPKCGKGGHAAYSSAVNILLGHGTRVGATYFMTYHTVLQTSADFIDALKKARLIASNVTETMGINGSAYRVFPYSVFYVFYEQYLTIIDDTIFNLGVSLGAIFLVTMVLLGCELWSAVIMCATIAMVLVNMFGVMWLWGISLNAVSLVNLVMSCGISVEFCSHITRAFTVSMKGSRVERAEEALAHMGSSVFSGITLTKFGGIVVLAFAKSQIFQIFYFRMYLAMVLLGATHGLIFLPVLLSYIGPSVNKAKSCATEERYKGTERERLLNF | – | – | 266 ± 25.5
